The values that follow come from patent US20200123214A1 (published 2020).

Test [1] concerns the target T1, recombinant human CSF1 protein (human) (UniProt P09603).
T1 sequence (looked up): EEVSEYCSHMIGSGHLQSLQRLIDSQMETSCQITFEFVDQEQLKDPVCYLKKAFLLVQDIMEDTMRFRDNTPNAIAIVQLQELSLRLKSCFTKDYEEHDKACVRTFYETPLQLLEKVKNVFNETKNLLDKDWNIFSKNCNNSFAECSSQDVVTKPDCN
The test can be described thus: SPR, BioRad ProteOn XPR 360.

The target in test [2] is T2, murine CD40 overexpressed on CHO-K1 cells (CHOK1/CD40) (murine, UniProt P27512 20-289).
T2 construct: whole, on cells; also called mCD40
T2 sequence (looked up): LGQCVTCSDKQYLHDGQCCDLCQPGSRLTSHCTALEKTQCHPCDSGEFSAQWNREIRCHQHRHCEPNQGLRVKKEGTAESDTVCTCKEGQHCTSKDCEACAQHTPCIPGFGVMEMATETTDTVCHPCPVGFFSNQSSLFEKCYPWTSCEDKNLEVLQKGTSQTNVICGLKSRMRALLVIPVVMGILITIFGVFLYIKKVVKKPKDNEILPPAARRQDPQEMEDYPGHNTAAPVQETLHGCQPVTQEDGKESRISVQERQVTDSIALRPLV
The test can be described thus: flow cytometry on CHOK1/CD40 cells. The protocol:
For cell binding assays, immortalized cell lines were engineered to stably express CD40 (CHOK1/CD40). Increasing concentrations of the murine CSF1R-Fc-CD40L chimeric protein were incubated with the over-expressing (CHOK1/CD40) cell line for 2 hours. Cells were collected, washed, and stained with antibodies for the detection of chimeric protein binding by flow cytometry.
As a negative control, there was no detectable binding to the parental (non-CD40 expressing) CHOK1 cell line.

Take CSF1R-Fc (Fc fusion): in test [1], the Kd was 0.275 nM, the koff was 0.000335 s⁻¹ and the kon stood at 1.22e+06 M⁻¹ s⁻¹.

B1: murine CSF1R-Fc-CD40L chimeric protein (Fc fusion, UniProt P09581 20-515, looked up)
chain: APVIEPSGPELVVEPGETVTLRCVSNGSVEWDGPISPYWTLDPESPGSTLTTRNATFKNTGTYRCTELEDPMAGSTTIHLYVKDPAHSWNLLAQEVTVVEGQEAVLPCLITDPALKDSVSLMREGGRQVLRKTVYFFSPWRGFIIRKAKVLDSNTYVCKTMVNGRESTSTGIWLKVNRVHPEPPQIKLEPSKLVRIRGEAAQIVCSATNAEVGFNVILKRGDTKLEIPLNSDFQDNYYKKVRALSLNAVDFQDAGIYSCVASNDVGTRTATMNFQVVESAYLNLTSEQSLLQEVSVGDSLILTVHADAYPSIQHYNWTYLGPFFEDQRKLEFITQRAIYRYTFKLFLNRVKASEAGQYFLMAQNKAGWNNLTFELTLRYPPEVSVTWMPVNGSDVLFCDVSGYPQPSVTWMECRGHTDRCDEAQALQVWNDTHPEVLSQKPFDKVIIQSQLPIGTLKHNMTYFCKTHNSVGNSSQYFRAVSLGQSKQLPDESLFTPHRRLDKVEEEVNLHEDFVFIKKLKRCNKGEGSLSLLNCEEMRRQFEDLVKDITLNKEEKKENSFEMQRGDEDPQIAAHVVSEANSNAASVLQWAKKGYYTMKSNLVMLENGKQLTVKREGLYYVYTQVTFCSNREPSSQRPFIVGLWLKPSSGSERILLKAANTHSSSQLCEQQSVHLGGVFELQAGASVFVNVTEASQVIHRVGFSSFGLLKL
notes: constructed 'as described above in the Detailed Description and in U.S. 62/464,002'; also called mCSF1R-Fc-CD40L; mCD115-Fc-CD40L; not shown: Fc linker of the murine chimera
Take B1: the EC50 in test [2] is 91.1 nM.
